Assay results published in patent US20160108128A1 (CANCER RESEARCH TECHNOLOGY, published 2016).

B1: J1-183D variant 4 (antibody, human IgG1, V domains shown)
VH: QVQLVQSGAEVKKPGASVKVSCKASGYTFTDYAIHWVRQAPGQGLEWMGIINTYYGDSKYAQKFQGRVTMTVDTSTSTAYMELSSLRSEDTAVYYCARGYDGFAYWGQGTLVTVSS
VL: DIQMTQSPSSLSASVGDRVTITCRTSENIYSYLTWYQQKPGKAPKLLVYNAKILAAGVPSRFSGSGSGTDFTLTISSLQPEDFATYYCQHHYDIPWTFGGGTKLEIKR
notes: human IgG1; also called J1-183DV4; V4
B2: J1-183D variant 9 (antibody, human IgG1, V domains shown)
VH: QVQLVQSGAELKKPGASVKVSCKVSGYAFTDYAIHWIRQAPGQGLEWMGIINTYYGDSKYNQKFKDRVTMTVDKSTSTAYMELSSLRSEDTAVYYCARGYDGFAYWGQGTLVTVSS
VL: DIQMTQSPSSLSASVGDRVTITCRTSENIYSYLTWYQQKPGKAPKLLIYNAKILDSGVPSRFSGSGSGTDFTLTISSLQPEDFATYYCQHHYDIPWTFGGGTKLEIKR
notes: human IgG1; also called J1-183DV9; V9
B3: J1-183D variant 14 (antibody, human IgG1, V domains shown)
VH: QVQLVQSGAELKKPGASVKVSCKVSGYAFTDYAIHWIRQAPGQGLEWMGIINTYYGDSKYAQKFQGRVTMTVDTSTSTAYMELSSLRSEDTAVYYCARGYDGFAYWGQGTLVTVSS
VL: DIQMTQSPSSLSASVGDRVTITCRTSENIYSYLTWYQQKPGKAPKLLIYHAKILDSGVPSRFSGSGSGTDFTLTISSLQPEDFATYYCQHHYDIPWTFGGGTKLEIKR
notes: human IgG1; also called J1-183DV14; V14
B4: J1-183D variant 5 (antibody, human IgG1, V domains shown)
VH: QVQLVQSGAELKKPGASVKVSCKVSGYAFTDYAIHWIRQAPGQGLEWMGIINTYYGDSKYNQKFKDRVTMTVDKSTSTAYMELSSLRSEDTAVYYCARGYDGFAYWGQGTLVTVSS
VL: DIQMTQSPSSLSASVGDRVTITCRTSENIYSYLTWYQQKPGKAPKLLIYNAKTLASGVPSRFSGSGSGTDFTLTISSLQPEDFATYYCQHHYDIPWTFGGGTKLEIKR
notes: human IgG1; also called J1-183DV5; V5
B5: J1-183D variant 8 (antibody, human IgG1, V domains shown)
VH: QVQLVQSGAEVKKPGASVKVSCKASGYTFTDYAIHWVRQAPGQGLEWMGIINTYYGDSKYAQKFQGRVTMTVDTSTSTAYMELSSLRSEDTAVYYCARGYDGFAYWGQGTLVTVSS
VL: DIQMTQSPSSLSASVGDRVTITCRTSENIYSYLTWYQQKPGKAPKLLIYNAKTLASGVPSRFSGSGSGTDFTLTISSLQPEDFATYYCQHHYDIPWTFGGGTKLEIKR
notes: human IgG1; also called J1-183DV8; V8
B6: J1-183D variant 13 (antibody, human IgG1, V domains shown)
VH: QVQLVQSGAELKKPGASVKVSCKVSGYAFTDYAIHWIRQAPGQGLEWMGIINTYYGDSKYNQKFKDRVTMTVDKSTSTAYMELSSLRSEDTAVYYCARGYDGFAYWGQGTLVTVSS
VL: DIQMTQSPSSLSASVGDRVTITCRTSENIYSYLTWYQQKPGKAPKLLIYHAKILDSGVPSRFSGSGSGTDFTLTISSLQPEDFATYYCQHHYDIPWTFGGGTKLEIKR
notes: human IgG1; also called J1-183DV13; V13
B7: J1-183D variant 12 (antibody, human IgG1, V domains shown)
VH: QVQLVQSGAEVKKPGASVKVSCKASGYTFTDYAIHWVRQAPGQGLEWMGIINTYYGDSKYAQKFQGRVTMTVDTSTSTAYMELSSLRSEDTAVYYCARGYDGFAYWGQGTLVTVSS
VL: DIQMTQSPSSLSASVGDRVTITCRTSENIYSYLTWYQQKPGKAPKLLIYNAKILDSGVPSRFSGSGSGTDFTLTISSLQPEDFATYYCQHHYDIPWTFGGGTKLEIKR
notes: human IgG1; also called J1-183DV12; V12
B8: J1-183D variant 6 (antibody, human IgG1, V domains shown)
VH: QVQLVQSGAELKKPGASVKVSCKVSGYAFTDYAIHWIRQAPGQGLEWMGIINTYYGDSKYAQKFQGRVTMTVDTSTSTAYMELSSLRSEDTAVYYCARGYDGFAYWGQGTLVTVSS
VL: DIQMTQSPSSLSASVGDRVTITCRTSENIYSYLTWYQQKPGKAPKLLIYNAKTLASGVPSRFSGSGSGTDFTLTISSLQPEDFATYYCQHHYDIPWTFGGGTKLEIKR
notes: human IgG1; also called J1-183DV6; V6
B9: J1-183D variant 16 (antibody, human IgG1, V domains shown)
VH: QVQLVQSGAEVKKPGASVKVSCKASGYTFTDYAIHWVRQAPGQGLEWMGIINTYYGDSKYAQKFQGRVTMTVDTSTSTAYMELSSLRSEDTAVYYCARGYDGFAYWGQGTLVTVSS
VL: DIQMTQSPSSLSASVGDRVTITCRTSENIYSYLTWYQQKPGKAPKLLIYHAKILDSGVPSRFSGSGSGTDFTLTISSLQPEDFATYYCQHHYDIPWTFGGGTKLEIKR
notes: human IgG1; also called J1-183DV16; V16
B10: J1-183D variant 7 (antibody, human IgG1, V domains shown)
VH: QVQLVQSGAELKKPGASVKVSCKVSGYAFTDYAIHWVRQAPGQGLEWMGIINTYYGDSKYAQKFQGRVTMTVDTSTSTAYMELSSLRSEDTAVYYCARGYDGFAYWGQGTLVTVSS
VL: DIQMTQSPSSLSASVGDRVTITCRTSENIYSYLTWYQQKPGKAPKLLIYNAKTLASGVPSRFSGSGSGTDFTLTISSLQPEDFATYYCQHHYDIPWTFGGGTKLEIKR
notes: human IgG1; also called J1-183DV7; V7
B11: J1-183D variant 15 (antibody, human IgG1, V domains shown)
VH: QVQLVQSGAELKKPGASVKVSCKVSGYAFTDYAIHWVRQAPGQGLEWMGIINTYYGDSKYAQKFQGRVTMTVDTSTSTAYMELSSLRSEDTAVYYCARGYDGFAYWGQGTLVTVSS
VL: DIQMTQSPSSLSASVGDRVTITCRTSENIYSYLTWYQQKPGKAPKLLIYHAKILDSGVPSRFSGSGSGTDFTLTISSLQPEDFATYYCQHHYDIPWTFGGGTKLEIKR
notes: human IgG1; also called J1-183DV15; V15
B12: J1-183D variant 11 (antibody, human IgG1, V domains shown)
VH: QVQLVQSGAELKKPGASVKVSCKVSGYAFTDYAIHWVRQAPGQGLEWMGIINTYYGDSKYAQKFQGRVTMTVDTSTSTAYMELSSLRSEDTAVYYCARGYDGFAYWGQGTLVTVSS
VL: DIQMTQSPSSLSASVGDRVTITCRTSENIYSYLTWYQQKPGKAPKLLIYNAKILDSGVPSRFSGSGSGTDFTLTISSLQPEDFATYYCQHHYDIPWTFGGGTKLEIKR
notes: human IgG1; also called J1-183DV11; V11
B13: J1-65D variant 6 (antibody, human IgG1, V domains shown)
VH: QVQLVQSGAELKKPGSSVKVSCKASGYTFTDYEMHWVRQAPGQGLEWMGAIQPGGGGTAYAQKFKGRVTLTADKSTSTAYMELSSLRSEDTAVYYCTRRGYDDYPFAYWGQGTLVTVSS
VL: DIQMTQSPSSLSASVGDRVTITCRASGNIHNYLAWYQQKPGKAPKLLIYNAKTLADAVPSRFSGSGSGTDYTLTISSLQPEDFATYYCQHFWSAPWTFGGGTKLEIKR
notes: human IgG1; also called J1-65DV6; V6

Key:
[1] = molecular target: T1, murine Jagged 1, full length, on B16F10 cells (mouse, UniProt Q9QXX0 34-1218); test: FACS, B16F10-mJAG1 cells, anti-human-APC
T1 construct: whole, on cells; GFP co-expressed; also called mJ1; B16F10-mJAG1
T1 sequence (Q9QXX0 34-1218, one chain of several): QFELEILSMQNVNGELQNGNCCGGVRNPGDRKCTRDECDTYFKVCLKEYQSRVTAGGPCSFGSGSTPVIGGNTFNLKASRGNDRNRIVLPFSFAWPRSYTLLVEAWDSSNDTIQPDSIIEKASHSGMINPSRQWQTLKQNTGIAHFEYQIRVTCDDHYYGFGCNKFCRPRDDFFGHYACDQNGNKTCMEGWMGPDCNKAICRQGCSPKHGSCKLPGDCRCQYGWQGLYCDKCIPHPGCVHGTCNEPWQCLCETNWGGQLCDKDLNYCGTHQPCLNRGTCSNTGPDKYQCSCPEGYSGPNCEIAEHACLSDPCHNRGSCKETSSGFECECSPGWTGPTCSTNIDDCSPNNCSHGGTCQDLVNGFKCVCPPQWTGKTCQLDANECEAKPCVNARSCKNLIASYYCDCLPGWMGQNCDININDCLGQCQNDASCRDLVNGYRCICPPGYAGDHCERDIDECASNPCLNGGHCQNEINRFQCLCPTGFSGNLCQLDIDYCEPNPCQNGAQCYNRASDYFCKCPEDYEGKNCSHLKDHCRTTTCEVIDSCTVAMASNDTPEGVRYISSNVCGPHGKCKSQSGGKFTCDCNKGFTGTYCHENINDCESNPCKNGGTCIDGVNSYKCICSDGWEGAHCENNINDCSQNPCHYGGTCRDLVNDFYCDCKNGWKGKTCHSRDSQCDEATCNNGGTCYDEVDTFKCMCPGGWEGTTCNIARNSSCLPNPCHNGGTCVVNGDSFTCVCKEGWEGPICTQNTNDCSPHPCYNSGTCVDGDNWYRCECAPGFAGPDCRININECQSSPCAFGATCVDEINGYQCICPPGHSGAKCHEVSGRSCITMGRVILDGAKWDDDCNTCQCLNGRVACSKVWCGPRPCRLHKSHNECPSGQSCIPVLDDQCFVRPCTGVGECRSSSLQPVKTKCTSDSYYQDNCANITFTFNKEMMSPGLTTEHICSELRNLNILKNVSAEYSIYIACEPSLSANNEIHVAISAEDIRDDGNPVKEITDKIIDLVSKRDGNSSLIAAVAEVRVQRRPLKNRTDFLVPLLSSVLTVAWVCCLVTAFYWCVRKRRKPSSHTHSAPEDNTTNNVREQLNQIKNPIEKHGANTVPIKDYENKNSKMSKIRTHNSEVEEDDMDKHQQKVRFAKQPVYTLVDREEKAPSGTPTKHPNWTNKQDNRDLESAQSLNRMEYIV
Procedure: FIG. 19. […] Samples were analysed by FACS and the mean fluorescence intensities (MFI) were plotted.
(§1) HEK293 cells transfected with human J1, J2 or FLAG-EGFP-tagged DSL-EGF3 constructs, B16F10 cells transfected with human DLL4 or mouse J1, and human cancer cell lines, were stained with either purified anti-J1 antibodies at 10 μg/ml diluted in FACS wash buffer (2% FBS in PBS+0.1% sodium azide) or neat hybridoma supernatants followed by a allophycocyanin (APC)-conjugated secondary antibody at 1:200 dilution: for murine primary antibodies, used goat anti-mouse-APC (eBioscience); for humanised and chimeric antibodies used goat anti-human IgG (H+L) secondary antibody (Jackson ImmunoResearch Laboratories). After washing, samples were fixed with 1% paraformaldehyde (in PBS) and acquired with a FACSCalibur. FACS data were analysed with FlowJo software (TreeStar Inc.).

[2] = molecular target: T2, J1 DSL-EGF3 soluble recombinant protein (human Jagged 1 amino acids 185-335) (human, UniProt P78504 185-335); test: affinity to the immunogen J1-DE3; method not stated
T2 construct: biotinylated in the CD46 ELISA; also called J1-DE3; DSL+EGF1-3
T2 sequence (P78504 185-335, form in doubt): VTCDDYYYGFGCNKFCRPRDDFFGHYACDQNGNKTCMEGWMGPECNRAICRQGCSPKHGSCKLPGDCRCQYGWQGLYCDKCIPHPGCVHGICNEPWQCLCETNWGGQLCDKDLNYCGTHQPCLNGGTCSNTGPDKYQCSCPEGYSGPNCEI

[3] = molecular target: T3, human Jagged 2, full length, on HEK293 cells (human, UniProt Q9Y219 24-1238); test: FACS, 293-JAG2 cells, anti-human-APC
T3 construct: whole, on cells; also called J2; hJ2
T3 sequence (Q9Y219 24-1238): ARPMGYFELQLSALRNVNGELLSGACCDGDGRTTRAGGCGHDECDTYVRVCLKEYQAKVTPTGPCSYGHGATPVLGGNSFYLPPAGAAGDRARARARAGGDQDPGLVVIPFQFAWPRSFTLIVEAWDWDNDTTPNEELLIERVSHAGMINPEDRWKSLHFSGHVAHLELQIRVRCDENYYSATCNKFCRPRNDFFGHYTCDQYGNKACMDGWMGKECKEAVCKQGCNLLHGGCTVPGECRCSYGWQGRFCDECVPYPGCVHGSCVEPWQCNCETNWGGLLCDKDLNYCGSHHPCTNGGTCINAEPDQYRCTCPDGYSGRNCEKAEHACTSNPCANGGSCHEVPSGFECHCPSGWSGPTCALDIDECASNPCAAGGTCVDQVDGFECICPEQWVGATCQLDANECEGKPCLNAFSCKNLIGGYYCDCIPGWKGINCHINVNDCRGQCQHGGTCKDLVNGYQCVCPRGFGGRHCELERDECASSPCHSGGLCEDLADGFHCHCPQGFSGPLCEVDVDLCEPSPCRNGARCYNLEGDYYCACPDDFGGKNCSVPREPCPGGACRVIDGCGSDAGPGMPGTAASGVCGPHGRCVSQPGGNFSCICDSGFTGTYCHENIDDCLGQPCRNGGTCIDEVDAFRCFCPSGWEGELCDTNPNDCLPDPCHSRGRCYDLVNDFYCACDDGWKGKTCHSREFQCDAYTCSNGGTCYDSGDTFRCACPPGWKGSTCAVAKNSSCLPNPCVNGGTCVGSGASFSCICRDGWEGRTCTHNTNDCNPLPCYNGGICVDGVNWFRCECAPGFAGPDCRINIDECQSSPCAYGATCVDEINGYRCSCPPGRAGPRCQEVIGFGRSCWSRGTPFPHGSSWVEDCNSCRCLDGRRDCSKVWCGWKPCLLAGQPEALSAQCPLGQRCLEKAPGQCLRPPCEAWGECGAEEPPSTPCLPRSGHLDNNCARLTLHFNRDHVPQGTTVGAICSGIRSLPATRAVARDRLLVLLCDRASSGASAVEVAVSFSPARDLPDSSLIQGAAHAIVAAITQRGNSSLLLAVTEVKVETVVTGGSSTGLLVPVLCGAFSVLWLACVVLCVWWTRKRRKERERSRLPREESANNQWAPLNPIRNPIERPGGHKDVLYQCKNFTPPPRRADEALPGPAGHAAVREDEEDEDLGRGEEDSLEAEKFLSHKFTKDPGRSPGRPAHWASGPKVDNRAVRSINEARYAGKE
Procedure: FIG. 18. […] Samples were analysed by FACS and the mean fluorescence intensities (MFI) were plotted. […] With the exception of J1-65D variants 13-16, all the remaining antibodies effectively bound the human J1 protein.
as §1

| Binder | binding result [1] | Kd [2] [nM] | binding result [3] |
| --- | --- | --- | --- |
| B1 | no binding (tested: 10 ug/ml) | 2.76 | no binding (tested: 10 ug/ml) |
| B2 | no binding (tested: 10 ug/ml) | 0.68 | no binding (tested: 10 ug/ml) |
| B3 | no binding (tested: 10 ug/ml) | 3.91 | no binding (tested: 10 ug/ml) |
| B4 | no binding (tested: 10 ug/ml) | 2.75 | no binding (tested: 10 ug/ml) |
| B5 | no binding (tested: 10 ug/ml) | 1.48 | no binding (tested: 10 ug/ml) |
| B6 | no binding (tested: 10 ug/ml) | 1.5 | no binding (tested: 10 ug/ml) |
| B7 | no binding (tested: 10 ug/ml) | 2.61 | no binding (tested: 10 ug/ml) |
| B8 | no binding (tested: 10 ug/ml) | 1.39 | no binding (tested: 10 ug/ml) |
| B9 | no binding (tested: 10 ug/ml) | 4.86 | no binding (tested: 10 ug/ml) |
| B10 | no binding (tested: 10 ug/ml) | 1.26 | no binding (tested: 10 ug/ml) |
| B11 | no binding (tested: 10 ug/ml) | 5.47 | no binding (tested: 10 ug/ml) |
| B12 | no binding (tested: 10 ug/ml) | 2.82 | no binding (tested: 10 ug/ml) |
| B13 | no binding (tested: 10 ug/ml) | 0.223 | no binding (tested: 10 ug/ml) |
